These are literature values, as cited in publication PMC12283743.

In the series the test system is H. pylori surface recombinant antigen (not named) (Helicobacter pylori). The conditions noted are these: target of the Kd cut off in the material (recombinant antigen or cells); Sensor only: bacteria incubated 40 min on the aptamer electrode, detection in PBS pH 7.0 (0.1 M for CV), room temperature; conditions of the cited Kd not given.

Turning to “AGTGTGCTCTTCTCAGGTCTCGGCGCGGTTGTGGGTACCTAGGGTTGTTGTTGCTTCTCAGCAGTGTCTCAGCATACGCA [H. pylori aptamer]”, the Kd (commonly a measure of binding affinity in units of concentration) was 26 nM.
